Here are results for five substances from patent publication US20240033343A1.

Read-outs that look alike come from different tables or passages of the source.

The term Kd denotes a measure of binding affinity in units of concentration. A higher Kd goes with weaker binding. As usually defined, the EC50 (read off the curve) is the concentration that produces a half-maximal response.

Assay [1] concerns the target SARS-CoV-2 Sclamp (SARS-CoV-2) (UniProt P0DTC2).
Assay [2] shares this target. Put plainly: ELISA on purified antigen, antibody titrated. Background: In an ELISA, binding on a coated surface is turned into a signal by an enzyme label.
The target in assay [3] is SARS-CoV-2-foldon (SARS-CoV-2) (UniProt P0DTC2). Put plainly: ELISA on purified antigen, antibody titrated.
Assay [4] addresses SARS-CoV-2 Sclamp (SARS-CoV-2) (UniProt P0DTC2). Put plainly: characterization of the lead candidate; ELISA per paragraph 282.

For S309 (antibody), the Kd in assay [1] was 0.08 nM. Regarding huCR3022 (antibody), the EC50 (read off the curve) in assay [2] and in assay [3] was 0.6 nM throughout.

Regarding DH1047 (antibody), the 50% effective concentration (EC50 (read off the curve)) came out at 0.3 nM in assay [2] and 0.4 nM in assay [3]. In assay [1], CB6 (antibody) registered a Kd of 0.15 nM. As for CR3022 (antibody), the equilibrium dissociation constant (Kd) in assay [1] was determined as 0.13 nM; in assay [4], 0.3 nM.
